Experimental data published in patent US20240117018A1.

Columns and labels:
Experiment in all cases: cell-based or functional assay
[1] = biological target: HIV-1 Env of pseudovirus X1632_S2_B10 (HIV-1)
[2] = biological target: HIV-1 Env of pseudovirus P0402_c2_11 (HIV-1)
[3] = biological target: HIV-1 Env of pseudovirus 6041.v3.c23 (HIV-1)
[4] = biological target: HIV-1 Env of pseudovirus P1981_C5_3 (HIV-1)
[5] = biological target: HIV-1 Env of pseudovirus R3265.c06 (HIV-1)
[6] = biological target: HIV-1 Env of pseudovirus R1166.c01 (HIV-1)
[7] = biological target: HIV-1 Env of pseudovirus X2088_c9 (HIV-1)
[8] = biological target: HIV-1 Env of pseudovirus 6540.v4.c1 (HIV-1)
[9] = biological target: HIV-1 Env of pseudovirus 6811.v7.c18 (HIV-1)
[10] = biological target: HIV-1 Env of pseudovirus 231966.c02 (HIV-1)
[11] = biological target: HIV-1 Env of pseudovirus 3817.v2.c59 (HIV-1)
[12] = biological target: HIV-1 Env of pseudovirus X1193_c1 (HIV-1)
[13] = biological target: HIV-1 Env of pseudovirus BJOX010000.06.2 (HIV-1)
[14] = biological target: HIV-1 Env of pseudovirus BJOX025000.01.1 (HIV-1)
[15] = biological target: HIV-1 Env of pseudovirus C1080.c03 (HIV-1)
[16] = biological target: HIV-1 Env of pseudovirus 6480.v4.c25 (HIV-1)
[17] = biological target: HIV-1 Env of pseudovirus 211-9 (HIV-1)
[18] = biological target: HIV-1 Env of pseudovirus BJOX028000.10.3 (HIV-1)
[19] = biological target: HIV-1 Env of pseudovirus 0815.v3.c3 (HIV-1)
[20] = biological target: HIV-1 Env of pseudovirus 235-47 (HIV-1)
[21] = biological target: HIV-1 Env of pseudovirus BJOX015000.11.5 (HIV-1)
[22] = biological target: HIV-1 Env of pseudovirus R2184.c04 (HIV-1)
[23] = biological target: HIV-1 Env of pseudovirus T251-18 (HIV-1)
[24] = biological target: HIV-1 Env of pseudovirus BJOX009000.02.4 (HIV-1)
[25] = biological target: HIV-1 Env of pseudovirus 89-F1_2_25 (HIV-1)
[26] = biological target: HIV-1 Env of pseudovirus T255-34 (HIV-1)
[27] = biological target: HIV-1 Env of pseudovirus C4118.c09 (HIV-1)
[28] = biological target: HIV-1 Env of pseudovirus C3347.c11 (HIV-1)
[29] = biological target: HIV-1 Env of pseudovirus 3103.v3.c10 (HIV-1)
[30] = biological target: HIV-1 Env of pseudovirus X2131_C1_B5 (HIV-1)
[31] = biological target: HIV-1 Env of pseudovirus 3301.v1.c24 (HIV-1)

10E8 (antibody)
IC50 neutralization (TZM.bl) [1]: 1.98 µg/mL | IC80 neutralization (TZM.bl) [1]: 9.68 µg/mL | IC50 neutralization (TZM.bl) [2]: 0.172 µg/mL | IC80 neutralization (TZM.bl) [2]: 3.29 µg/mL | IC50 neutralization (TZM.bl) [3]: 2.33 µg/mL | IC80 neutralization (TZM.bl) [3]: 9.77 µg/mL | IC50 neutralization (TZM.bl) [4]: 0.057 µg/mL | IC80 neutralization (TZM.bl) [4]: 0.285 µg/mL | IC50 neutralization (TZM.bl) [5]: > 10 µg/mL | IC80 neutralization (TZM.bl) [5]: > 10 µg/mL | IC50 neutralization (TZM.bl) [6]: 0.274 µg/mL | IC80 neutralization (TZM.bl) [6]: 2.61 µg/mL | IC50 neutralization (TZM.bl) [7]: > 10 µg/mL | IC80 neutralization (TZM.bl) [7]: > 10 µg/mL | IC50 neutralization (TZM.bl) [8]: 1.9 µg/mL | IC80 neutralization (TZM.bl) [8]: 10 µg/mL | IC50 neutralization (TZM.bl) [9]: 7.54 µg/mL | IC80 neutralization (TZM.bl) [9]: > 10 µg/mL | IC50 neutralization (TZM.bl) [10]: 0.191 µg/mL | IC80 neutralization (TZM.bl) [10]: 3.13 µg/mL | IC50 neutralization (TZM.bl) [11]: 1.18 µg/mL | IC80 neutralization (TZM.bl) [11]: 5.98 µg/mL | IC50 neutralization (TZM.bl) [12]: 0.497 µg/mL | IC80 neutralization (TZM.bl) [12]: 4.2 µg/mL | IC50 neutralization (TZM.bl) [13]: 0.341 µg/mL | IC80 neutralization (TZM.bl) [13]: 5.29 µg/mL | IC50 neutralization (TZM.bl) [14]: 0.107 µg/mL | IC80 neutralization (TZM.bl) [14]: 6.33 µg/mL | IC50 neutralization (TZM.bl) [15]: 0.061 µg/mL | IC80 neutralization (TZM.bl) [15]: 0.731 µg/mL | IC50 neutralization (TZM.bl) [16]: 8.08 µg/mL | IC80 neutralization (TZM.bl) [16]: > 10 µg/mL | IC50 neutralization (TZM.bl) [17]: 1.09 µg/mL | IC80 neutralization (TZM.bl) [17]: 6.51 µg/mL | IC50 neutralization (TZM.bl) [18]: 0.665 µg/mL | IC80 neutralization (TZM.bl) [18]: 7.36 µg/mL | IC50 neutralization (TZM.bl) [19]: 0.332 µg/mL | IC80 neutralization (TZM.bl) [19]: 2.87 µg/mL | IC50 neutralization (TZM.bl) [20]: 0.384 µg/mL | IC80 neutralization (TZM.bl) [20]: 2.07 µg/mL | IC50 neutralization (TZM.bl) [21]: 0.051 µg/mL | IC80 neutralization (TZM.bl) [21]: 1.91 µg/mL | IC50 neutralization (TZM.bl) [22]: 0.272 µg/mL | IC80 neutralization (TZM.bl) [22]: 2.46 µg/mL | IC50 neutralization (TZM.bl) [23]: 2.36 µg/mL | IC80 neutralization (TZM.bl) [23]: > 10 µg/mL | IC50 neutralization (TZM.bl) [24]: 1.57 µg/mL | IC80 neutralization (TZM.bl) [24]: 9.95 µg/mL | IC50 neutralization (TZM.bl) [25]: 1.11 µg/mL | IC80 neutralization (TZM.bl) [25]: 10 µg/mL | IC50 neutralization (TZM.bl) [26]: 0.778 µg/mL | IC80 neutralization (TZM.bl) [26]: 4.21 µg/mL | IC50 neutralization (TZM.bl) [27]: 1.62 µg/mL | IC80 neutralization (TZM.bl) [27]: 9.06 µg/mL | IC50 neutralization (TZM.bl) [28]: 0.016 µg/mL | IC80 neutralization (TZM.bl) [28]: 0.167 µg/mL | IC50 neutralization (TZM.bl) [29]: > 10 µg/mL | IC80 neutralization (TZM.bl) [29]: > 10 µg/mL | IC50 neutralization (TZM.bl) [30]: 0.189 µg/mL | IC80 neutralization (TZM.bl) [30]: 0.974 µg/mL | IC50 neutralization (TZM.bl) [31]: 4.63 µg/mL | IC80 neutralization (TZM.bl) [31]: > 10 µg/mL
